Results on five molecules are retold here after US20230242598A1, “FUNCTIONAL POLYPEPTIDES AND USE THEREOF” (priority 2020, published 2023).

The term IC50 denotes the concentration that gives 50% inhibition.

Data set [1] concerns HeLa. The settings on record: cited from earlier work.
In data set [2] the test system is smooth muscle cell. The settings on record: Frew et al. 2008; cited from earlier work.
The subject of data set [3] is mice. The settings on record: i.p.; cited from earlier work.
The subject of data set [4] is L1210. The settings on record: Kobayashi et al. 1994; cited from earlier work.
Data set [5] deals with HeLa cells. Description: Cytotoxicity of SOR, Cell Counting Kit-8 (WST-8). The settings on record: ratio of cytotoxicity, HeLa versus L1210. Format: cell-based, human. The method, then:
The cytotoxicity of SOR was evaluated using L1210 (RBRC-RCB2844, Riken) and HeLa (RBRC-RCB0007, Riken) cells. RPMI1640 medium supplemented with 10% FBS was used for the L1210 cells, and EMEM supplemented with 10% FBS was used for the HeLa cells. The cells were precultured for 3 days (L1210) or 7 days (HeLa) using a CO2 incubator (37° C., 5% CO2). […]. SOR dissolved in a medium (200 μg/mL) was filtered ([…]), and serially diluted 2-fold, and the diluted products were added to wells in an amount of 10 μL/well such that the final concentration of SOR was 50 to 0.024 μg/mL. The cells of each line were incubated for 48 hours, and the growth of the cells was quantified using Cell Counting Kit-8 (Dojindo Laboratories Co., Ltd.) based on the WST-8 method according to manufacturer's protocol. Absorption at 450 nm was measured using a microplate reader, and a mean of triplicate data was plotted to prepare a concentration-response curve, followed by analysis using Prism software. […].
A general note: Tetrazolium dyes change colour on reduction, which living cells bring about.

Data set [6] relates to Aplysia kurodai eggs. Briefly: Toxicity in Aplysia kurodai egg (influence on cleavage and development). Format: in vivo. How it is done:
Eggs were taken out of a newly deposited egg mass of Aplysia kurodai, and influence on cleavage was examined using the collected eggs. Eggs were taken out of the egg mass in artificial seawater (ASW) and gently centrifuged by hand centrifuge apparatus. The precipitated eggs were rinsed with ASW twice. Filtered natural seawater was added to a 24-well plate (2 mL/well), to which SOR (10 μL/well) and subsequently the liquid containing the eggs (20 μL/well) were added. Then, egg development was observed under microscope every few hours. […] Untreated control eggs underwent the second cleavage 6 hours after fertilization and developed into morula in 24 hours; […].

Data set [7] deals with mice (ddY, male). Format: in vivo. The settings on record: i.c.v. How it is done: Toxicity in mice was assessed by intracerebroventricularly injecting varying concentrations of SOR to mice (ddY, male, 3 to 4 weeks old, Japan SLC, Inc.) (Sakai et al., J Pharmacol Exp Ther. 2001; 296(2):650-8). […] […].
Data set [8] deals with Plasmid DNA (pTAC-1). Briefly: Cleavage of DNA by natural SOR, agarose electrophoresis. The following applies: SOR 8.8 μg/mL, with or without EDTA 12.5 mM, room temperature, 24 hours. Format: biochemical. How it is done:
Plasmid DNA (pTAC-1, 4 ng, BioDynamics Laboratory, Inc.), or the plasmid DNA and EDTA (12.5 mM) were added to and mixed with a hydrophobic interaction chromatography fraction containing SOR (8.8 μg/mL) or a Tris-HCl buffer (pH 8.3) containing 0.1 M NaCl. The mixture was left at room temperature for 24 hours, separated by agarose electrophoresis, stained with ethidium bromide (15 min), and subsequently observed under UV light (260 nm). Thermo scientific GeneRuler 1 kb DNA Ladder (Thermo Fisher Scientific Inc.) was used as a marker.

Data set [9] concerns HeLa cells (derived from human uterine cervix cancer). Description: Intracellular translocation into HeLa cell, confocal laser microscope. The format is cell-based. The following applies: overall conclusion.
Description: Whether SOR could translocate into cells and further into the nuclei was studied using fluorescently labeled SOR. […] Also, BSA labeled with FITC in the same manner as above was used as a control.
The same experiment as in the section (1) was also conducted for HeLa cells (derived from human uterine cervix cancer). A HeLa suspension prepared at approximately 2.2×10^4 cells/mL was added at 270 μL/well to 8-well chamber cover glass (Eppendorf) to make approximately 6.0×10^3 cells/well, followed by preculture at 37° C. for 24 hours in a 5% CO2 incubator. […] The cells thus supplemented with the sample was subjected to fixing and permeabilization treatment over each time period from 30 minutes to 16 hours, and stained with DAPI. Then, a mount was prepared.
The nature of data set [10]: Isoelectric point by two-dimensional polyacrylamide gel electrophoresis (2-DE). Format: physicochemical. The following applies: IPG Strip 3-6. The method, then: Next, the isoelectric point of SOR was determined by two-dimensional polyacrylamide gel electrophoresis (2-DE). First, 443 μg of a sample was mixed with a rehydration solution (8 M urea, 0.5% 3-[(3-cholamidopropyl)dimethylammonio]-prop anesulfonic acid (CHAPS), 0.5% Bio-Lyte 3/10 (Bio-Rad Laboratories, Inc.), 0.2% dithiothreitol, 0.002% bromophenol blue). The obtained solution was applied to IPG Strip 3-6 (Bio-Rad Laboratories, Inc.). Isoelectric focusing electrophoresis was performed at 20° C. as follows: rehydration for 12 hours, 300 V for 30 minutes, 1000 V for 30 minutes, and 5000 V for 2 hours. After electrophoresis, the strip was equilibrated for 15 minutes with shaking in 2% SDS, 50 mM Tris-HCl, pH 8.8, 6 M urea, 30% glycerol, and 0.25% DTT. Subsequently, the strip was re-equilibrated for 15 minutes with shaking in 2% SDS, 50 mM Tris-HCl, pH 8.8, 6 M urea, 30% glycerol, and 4.5% iodoacetamide. The strip was put on a 12% polyacrylamide gel, and the second electrophoresis was performed in the same manner as in SDS-PAGE. The gel was stained with a silver staining kit (Wako Pure Chemical Industries, Ltd.).

Like-named read-outs stand apart in the source and are kept apart here.

`C=C1[C@@H](C)[C@H]2[C@H](Cc3ccccc3)NC(=O)[C@]23[C@H](OC(C)=O)/C=C/[C@@](C)(O)C(=O)[C@@H](C)C/C=C/[C@H]3[C@@H]1O` [Cytochalasin D]: in [1] (Miranda et al. 1974), the IC50 is 100 nM.
On to `C=CC[C@H](C)[C@H](C)C[C@@H](O)[C@H](O)[C@@H]1CC[C@@]2(C)O[C@@]3(C)C[C@@]4(C)O[C@H]5/C=C\C[C@H]6O[C@H]7C[C@H]8O[C@H]9C[C@@]%10(C)O[C@@](C)([C@@H]%11CC[C@H]%12O[C@@]%13(C)C[C@H]%14O[C@@]%15(C)C[C@H]%16O[C@@]%17(C)C[C@@H](O)[C@H]([C@@H]%18O[C@H]%19[C@H](O)[C@@H](O)[C@H](C[C@H](O)C[C@@H](O)[C@@H]%20O[C@H]%21[C@H](O)[C@@H](O)[C@H]([C@@H]%22O[C@@H]%23[C@H](O)[C@H]%24O[C@H]%25C[C@H]%26O[C@@H](C[C@H](O)[C@@H](O)[C@H]%27O[C@H]%28[C@H](O)[C@H]%29O[C@H]%30C[C@H]%31O[C@H]%32[C@@H](O)[C@@H](O)[C@H]([C@H](C)[C@H](O)[C@H](C)CC[C@H](OS(=O)(=O)[O-])[C@H](O)[C@H](C)C[C@@H](O)C(=C)/C(C)=C/CO)O[C@@H]%32[C@H](O)C[C@]%31(C)O[C@@H]%30C[C@]%29(C)O[C@@H]%28C[C@H]%27O)[C@H](OS(=O)(=O)[O-])[C@H](O)[C@@H]%26O[C@@H]%25C[C@@H]%24O[C@H]%23[C@H](O)[C@H]%22O)O[C@H]%21C[C@H]%20O)O[C@H]%19C[C@H]%18O)O[C@@H]%17[C@H](O)[C@]%16(C)O[C@@H]%15CC[C@]%14(C)O[C@@H]%13C[C@@H]%12O%11)[C@H](O)C[C@@H]%10O[C@]9(C)CC[C@]8(C)O[C@]7(C)C[C@@H]6O[C@@H]5C[C@@H]4O[C@@H]3C[C@@H]2O1.[Na+].[Na+]` [Maito toxin], for which the IC50 in data set [2] is ~0.058 nM. Besides, the Lethal dose in data set [3] is given as 37.9 pmol/kg.
With `CC(=O)O[C@H]1C(=O)[C@@]2(C)[C@H]([C@H](OC(=O)c3ccccc3)[C@]3(O)C[C@H](OC(=O)[C@H](O)[C@@H](NC(=O)c4ccccc4)c4ccccc4)C(C)=C1C3(C)C)[C@]1(OC(C)=O)CO[C@@H]1C[C@@H]2O` [Paclitaxel], the IC50 in data set [1] (Liebmann et al. 1993) is 2.6 nM.
Consider `CO[C@H]1C[C@H](CC[C@H](C)[C@H](O)[C@H](C)[C@H]2OC(=O)/C=C/C(C)=C/C[C@H](O)C[C@@H]3C=CC[C@@H](C[C@H](OC)[C@@H](C)[C@@H](O)C[C@@H](O)[C@H](C)[C@@H]([C@@H](C)[C@@H](O)[C@@H](C)CC[C@H]4C[C@H](OC)C[C@H](C)O4)OC(=O)/C=C/C(C)=C/C[C@H](O)C[C@@H]4C=CC[C@@H](C[C@H](OC)[C@@H](C)[C@@H](O)C[C@@H](O)[C@@H]2C)O4)O3)O[C@@H](C)C1` [Swinholide A], for which the concentration for half-maximal inhibition (IC50) in data set [4] was 22 nM.

B1: soritesidine (protein)
chain: HFSLKRQDSSITHQTVSIFCITILLLSVSAYFPNSIPEAQAKLGDQRQIDIASWNTFDFGGKFGGVCKANDPTILQAMTDVISQHDVILVQEIANVTNPCNPANIFSGFNNLCSNNYLGGLGYLCQDTGIVGSGEGYGIIYKNNTGIGNVVIERTDNPNTVPYIPAGGGNNQMKRPPMKATLDFNAGAFNVVVYNAHTSPSGGVPKEIKLLSDRISPAHNPLDKNAVITLGDLNADGKRRLPNGQLDHGTDYYRGGFAAHPNDFPVSGWQQTVTDTDVTNFAQTLRAYDRMILSNATHNSYDEYGIIGGIPNPLPYPGGVYPAGTLFKNVHTGGGNTGKALSDHRLIWSKLNYGAIETTDNNGNTKSNFVEFTNPPQCTAPDTVYAKGADFVPNRTVDIYITKQPDNQNFIPLPQPQNPTNPGQFKQVGESYQLTDVRTTGKSTHNIDANGNIANTAVWVQPTPNQQYNLIVDVDRDGYFTNSIDIVDAFNTQGFDVDPCLRKRLAASLSDGIPAGDGTRDFVKPPKIFISGDWFPQGSARIYIIIYDKNFDYNGNDSKVLTDVRGTYDTITVGENHKFTGLEWSSPHVGNYNIIFDANSDGVYKKSDGDIVDHINEIGFAMLESYPHHSHIVDLDDNANQREDFNSGIAKNVYVLATNLPNPSTIVDVYVISEKLLKLNNPGWTTWQQSSNVPLKESAAPTNNGDRLHPTWVTPQKTVFGSVWHMPGDTFDPPYINYYGKKFTIVIDVNRDGKYDPSIDMVDTHDIGDMTDWFITQGHHDLSPTSGNGQPAVSEYKEYLNSKLDLENPLDNTNNYDAATEAASAQYLCRTNLPINLFENVIELGAQTGFIMFNPDEYYAGRDLNSGRHIYDAVDFDGLEINDGYTSVISAKEMTLNRLGVGQNSNLLTCGADTVTIDGMSTQKDSTTNIVAKTISHKSNISLEADTCTHYTHNLYFESDTNILVKAIESPFAWIIDVGDRILPGTGC
As to B1, in data set [5], the “selectivity for the HeLa cells over the L1210 cells” value is listed as “approximately 200 times”. In data set [6] (SOR 1.3 ng/mL), the “influence on egg cleavage and development” value is “overall shape of the cells was shrunken and bubble-like protrusions on the cell surface were often observed, though development progressed”. In addition, the “influence on egg cleavage and development” value in data set [6] (SOR 1.3 μg/mL, 24 hours) is “only two blastomeres were observed even 24 hours later”. Moreover, in data set [6] (varying SOR concentrations), the “influence on the morphology of the eggs” value is “concentration-dependent influence on the morphology of the eggs”. For the same molecule, in data set [7], the Lethal dose is 1.60 pmol/kg, the acute toxicity entry is “no acute toxicity was observed” and the “dosage causing lethal toxicity” value came to 5.74 ng/mouse. Besides, in [7] (574 ng of SOR), the time to death is 18 h, the “time to loss of normal posture” value turned out to be 17 h and the “time to loss of voluntary movement” value was 14 h. Further, the “eye observation after administration” value in [7] (14 hours or later after administration) is “Reddish ring around eyes was observed”. For the same molecule, the “cleavage of DNA” value in data set [8] is listed as “cleaved DNA in a metal ion-dependent manner”. The intracellular translocation entry in data set [9] was “intracellular translocation of SOR was confirmed”. In addition, the “isoelectric point (pI)” value in [10] was “approximately 4.5”.
